Reference: US20200055920A1 (published 2020)
Each block holds one binder with its values, some of them ahead of it.

Assays:
Assay in all cases: Biacore SPR; receptor-Fc captured by anti-Fc antibody, ligand injected
BMP7 = molecular target: T1, BMP7 (UniProt P18075 293-431)
T1 construct: also called osteogenic protein-1; OP-1
T1 sequence (looked up): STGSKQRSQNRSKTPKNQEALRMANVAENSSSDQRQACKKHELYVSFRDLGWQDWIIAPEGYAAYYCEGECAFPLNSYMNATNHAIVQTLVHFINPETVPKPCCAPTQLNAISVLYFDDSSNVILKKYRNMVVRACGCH
Description: (§1) A Biacore™-based binding assay was used to compare ligand binding selectivity of the single-arm BMPRII-Fc heterodimeric complex described above with that of an BMPRII-Fc homodimeric complex. The single-arm BMPRII-Fc and homodimeric BMPRII-Fc were independently captured onto the system using an anti-Fc antibody. Ligands were injected and allowed to flow over the captured receptor protein.

BMP10 = molecular target: T2, BMP10 (UniProt O95393 317-424)
T2 sequence (looked up): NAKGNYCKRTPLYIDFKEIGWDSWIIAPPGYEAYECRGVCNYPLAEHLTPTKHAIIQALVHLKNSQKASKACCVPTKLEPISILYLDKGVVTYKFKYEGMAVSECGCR
Description: as §1

GDF7 = molecular target: T3, GDF7 (UniProt Q7Z4P5 322-450, limits assumed)
T3 construct: also called BMP12
T3 sequence (looked up): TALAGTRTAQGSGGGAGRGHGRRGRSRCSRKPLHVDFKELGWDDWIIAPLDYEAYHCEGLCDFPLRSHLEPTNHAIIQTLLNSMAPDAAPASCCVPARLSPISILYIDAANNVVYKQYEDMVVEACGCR
Description: as §1

BMP4 = molecular target: T4, BMP4 (UniProt P12644 293-408)
T4 sequence (looked up): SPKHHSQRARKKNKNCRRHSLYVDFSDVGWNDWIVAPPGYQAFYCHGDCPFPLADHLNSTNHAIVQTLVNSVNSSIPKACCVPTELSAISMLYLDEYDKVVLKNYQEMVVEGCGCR
Description: as §1

BMP6 = molecular target: T5, BMP6 (UniProt P22004 382-513, limits assumed)
T5 sequence (looked up): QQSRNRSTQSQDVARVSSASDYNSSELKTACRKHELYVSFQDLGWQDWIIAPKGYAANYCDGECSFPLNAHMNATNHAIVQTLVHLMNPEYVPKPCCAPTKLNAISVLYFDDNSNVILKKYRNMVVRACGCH
Description: as §1

BMP15 = molecular target: T6, BMP15 (UniProt O95972 268-392)
T6 construct: also called GDF9b
T6 sequence (looked up): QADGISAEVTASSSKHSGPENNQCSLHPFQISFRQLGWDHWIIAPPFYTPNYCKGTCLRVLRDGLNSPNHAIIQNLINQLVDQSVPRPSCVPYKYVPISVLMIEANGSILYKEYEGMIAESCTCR
Description: as §1

BMP2 = BMP2 (UniProt P12643 283-396)
Sequence of BMP2 (P12643 283-396 limits assumed): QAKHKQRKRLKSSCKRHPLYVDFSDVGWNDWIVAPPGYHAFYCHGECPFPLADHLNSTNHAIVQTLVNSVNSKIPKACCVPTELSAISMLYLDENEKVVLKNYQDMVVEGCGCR
Description: as §1

BMP5 = molecular target: T7, BMP5 (UniProt P22003 317-454, limits assumed)
T7 sequence (looked up): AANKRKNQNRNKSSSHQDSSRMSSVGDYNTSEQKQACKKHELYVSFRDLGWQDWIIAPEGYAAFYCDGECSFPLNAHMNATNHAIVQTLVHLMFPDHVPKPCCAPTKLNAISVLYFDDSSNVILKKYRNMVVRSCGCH
Description: as §1

TGFβ2 = molecular target: T8, TGFβ2 (UniProt P61812 303-414)
T8 construct: also called TGF-beta2
T8 sequence (looked up): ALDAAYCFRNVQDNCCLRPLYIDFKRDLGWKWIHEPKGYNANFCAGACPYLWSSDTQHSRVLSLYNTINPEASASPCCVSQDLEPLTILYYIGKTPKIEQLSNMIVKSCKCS
Description: (§2) Ligands were injected and allowed to flow over the captured receptor protein.

TGFβ3 = molecular target: T9, TGFβ3 (UniProt P10600 301-412)
T9 construct: also called TGF-beta3
T9 sequence (looked up): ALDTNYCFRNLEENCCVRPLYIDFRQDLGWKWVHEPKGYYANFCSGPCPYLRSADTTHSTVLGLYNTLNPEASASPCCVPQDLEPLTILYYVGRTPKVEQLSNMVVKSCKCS
Description: as §2

TGFβ1 = molecular target: T10, TGFβ1 (UniProt P01137 279-390)
T10 construct: also called TGF-beta1
T10 sequence (P01137 279-390 limits assumed): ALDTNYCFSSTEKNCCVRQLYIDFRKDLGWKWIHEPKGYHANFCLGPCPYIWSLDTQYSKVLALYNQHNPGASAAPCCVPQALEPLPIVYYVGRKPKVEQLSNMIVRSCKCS
Description: as §2

binding result (BMP7): no binding
Kd (BMP10): 0.43 nM
koff (BMP10): 0.0091 s⁻¹
kon (BMP10): 2.1e+07 M⁻¹ s⁻¹
Kd (GDF7): > 190 nM
binding result (BMP4): no binding
binding result (BMP6): no binding
Kd (BMP15): 0.94 nM
koff (BMP15): 0.067 s⁻¹
kon (BMP15): 7.1e+07 M⁻¹ s⁻¹
binding result (BMP2): no binding
Kd (BMP5): 36 nM
koff (BMP5): 0.015 s⁻¹
kon (BMP5): 410000 M⁻¹ s⁻¹
B1: single-arm BMPRII-Fc heterodimeric complex (Fc fusion)
chain 1: SQNQERLCAFKDPYQQDLGIGESRISHENGTILCSKGSTCYGLWEKSKGDINLVKQGCWSHIGDPQECHYEECVVTTTPPSIQNGTYRFCCCSTDLCNVNFTENFPPPDTTPLSPPHSFNRDETGGGTHTCPPCPAPELLGGPSVFLFPPKPKDTLMISRTPEVTCVVVDVSHEDPEVKFNWYVDGVEVHNAKTKPREEQYNSTYRVVSVLTVLHQDWLNGKEYKCKVSNKALPAPIEKTISKAKGQPREPQVYTLPPSRKEMTKNQVSLTCLVKGFYPSDIAVEWESNGQPENNYKTTPPVLKSDGSFFLYSKLTVDKSRWQQGNVFSCSVMHEALHNHYTQKSLSLSPGK
chain 2: SNTKVDKRVTGGGTHTCPPCPAPELLGGPSVFLFPPKPKDTLMISRTPEVTCVVVDVSHEDPEVKFNWYVDGVEVHNAKTKPREEQYNSTYRVVSVLTVLHQDWLNGKEYKCKVSNKALPAPIEKTISKAKGQPREPQVYTLPPSREEMTKNQVSLTCLVKGFYPSDIAVEWESNGQPENNYDTTPPVLDSDGSFFLYSDLTVDKSRWQQGNVFSCSVMHEALHNHYTQKSLSLSPGK
notes: also called BMPRII-Fc:Fc heterodimer

Kd (TGFβ2): > 61 nM
Kd (TGFβ3): 0.073 nM
koff (TGFβ3): 0.0099 s⁻¹
kon (TGFβ3): 1.4e+08 M⁻¹ s⁻¹
Kd (TGFβ1): 0.031 nM
koff (TGFβ1): 0.0047 s⁻¹
kon (TGFβ1): 1.5e+08 M⁻¹ s⁻¹
B2: single-arm TGFβRII-Fc heterodimeric complex (Fc fusion)
chain 1: TIPPHVQKSVNNDMIVTDNNGAVKFPQLCKFCDVRFSTCDNQKSCMSNCSITSICEKPQEVCVAVWRKNDENITLETVCHDPKLPYHDFILEDAASPKCIMKEKKKPGETFFMCSCSSDECNDNIIFSEEYNTSNPDTGGGTHTCPPCPAPELLGGPSVFLFPPKPKDTLMISRTPEVTCVVVDVSHEDPEVKFNWYVDGVEVHNAKTKPREEQYNSTYRVVSVLTVLHQDWLNGKEYKCKVSNKALPAPIEKTISKAKGQPREPQVYTLPPSRKEMTKNQVSLTCLVKGFYPSDIAVEWESNGQPENNYKTTPPVLKSDGSFFLYSKLTVDKSRWQQGNVFSCSVMHEALHNHYTQKSLSLSPGK
chain 2: SNTKVDKRVTGGGTHTCPPCPAPELLGGPSVFLFPPKPKDTLMISRTPEVTCVVVDVSHEDPEVKFNWYVDGVEVHNAKTKPREEQYNSTYRVVSVLTVLHQDWLNGKEYKCKVSNKALPAPIEKTISKAKGQPREPQVYTLPPSREEMTKNQVSLTCLVKGFYPSDIAVEWESNGQPENNYDTTPPVLDSDGSFFLYSDLTVDKSRWQQGNVFSCSVMHEALHNHYTQKSLSLSPGK
notes: also called TGFβRII-Fc:Fc heterodimer
